Experiment [1] deals with human serum-derived γ-globulin (Wako) (human). Kind of experiment: dynamic binding capacity at 10% breakthrough; Protein A support; residence time 1 min.
For experiment [2] the target is unchanged. Kind of experiment: dynamic binding capacity at 10% breakthrough; Protein A support; residence time 5 min.
Experiment [3] shares this target. Kind of experiment: dynamic binding capacity at 10% breakthrough; Protein A support; residence time 2.5 min.
Experiment [4] has as its target IgG. Kind of experiment: SPR (BIAcore T200), 1:1 binding fit. In general terms: Surface plasmon resonance follows binding to a sensor surface in real time, without labels.
The target of experiment [5] is IgG. Description: SPR (BIAcore T200), equilibrium value.
Experiment [6] has as its target human serum-derived γ-globulin (Wako) (human). Kind of experiment: DBC at 1 mL/min, 1 mg peptide column, after 1 cycle of 0.1 M NaOH washing.
Experiment [7] shares this target. Kind of experiment: DBC at 1 mL/min, 1 mg peptide column, after 0 cycles of 0.1 M NaOH washing.
The target is the same in experiment [8]. Kind of experiment: DBC at 1 mL/min, 1 mg peptide column, after 2 cycles of 0.1 M NaOH washing.
For experiment [9] the target is unchanged. Description: DBC at 1 mL/min, 1 mg peptide column, after 3 cycles of 0.1 M NaOH washing.
Experiment [10] has the same target. Description: DBC at 1 mL/min, 1 mg peptide column, after 4 cycles of 0.1 M NaOH washing.
Experiment [11] shares this target. Kind of experiment: DBC at 1 mL/min, 1 mg peptide column, after 5 cycles of 0.1 M NaOH washing.
The target is the same in experiment [12]. Kind of experiment: dynamic binding capacity at 10% breakthrough; 1 mg peptide on 1-mL column; residence time 1 min.
For experiment [13] the target is unchanged. Description: dynamic binding capacity at 10% breakthrough; 1 mg peptide on 1-mL column; residence time 5 min.
For experiment [14] the target is unchanged. Kind of experiment: dynamic binding capacity at 10% breakthrough; 4 mg peptide on 1-mL column; residence time 1 min.
Experiment [15] has the same target. Kind of experiment: dynamic binding capacity at 10% breakthrough; 4 mg peptide on 1-mL column; residence time 5 min.
The target is the same in experiment [16]. Description: dynamic binding capacity at 10% breakthrough; 10 mg peptide on 1-mL column; residence time 1 min.
Experiment [17] shares this target. Kind of experiment: dynamic binding capacity at 10% breakthrough; 10 mg peptide on 1-mL column; residence time 5 min.
For experiment [18] the target is unchanged. Description: dynamic binding capacity at 10% breakthrough; 1 mg peptide on 1-mL column; residence time 2.5 min.
Experiment [19] shares this target. Description: dynamic binding capacity at 10% breakthrough; 4 mg peptide on 1-mL column; residence time 2.5 min.
For experiment [20] the target is unchanged. Kind of experiment: dynamic binding capacity at 10% breakthrough; 10 mg peptide on 1-mL column; residence time 2.5 min.
Experiment [21] addresses IgG. Kind of experiment: SPR as in Example 1 (BIAcore T200, IgG immobilized).

Bridges are numbered along the chain shown (N, C = ends). Primed or numbered codes have the meaning given here. Where no end group is shown, it is not given here. [ ]: non-standard residue; d: D form. The star is where a group is joined. Biotin = O=C1N[C@H]2[C@H](CS[C@H]2CCCCC(=O)*)N1; Fmoc = O=C(OCC1c2ccccc2-c2ccccc21)*; PEG4′ = not defined here

For “commercially available Protein A support MabSelect (GE Healthcare) (from UniProt P38507 37-327)”, the DBC in experiment [1] amounted to 10; in experiment [2] it was 43.7; in experiment [3], 24.3.
Broadly, the Kd is the constant that tells how readily two partners part at equilibrium. Turning to “GPDCAYH(Xaa1)…-NH2 (SEQ ID NO:2, wherein Xaa1 is acetylated lysine), N-terminus blocked with biotinylated PEG4, intramolecular S-S bond (peptide)”, the Kd with IgG [4] was 2700 nM; with IgG [5], 2800 nM.
The like results for “GPDCAYH(Xaa1)…-NH2 (SEQ ID NO:2, wherein Xaa1 is lysine), N-terminus blocked with biotinylated PEG4, intramolecular S-S bond (peptide)” were, in that order, 156 nM and 131 nM.
Take {Biotin-PEG4′}-DCAYHRGELVWCT-NH2 (disulfide 2-12 (inferred)): the values for the Kd with IgG [4] and with IgG [5] were 54 nM and 64.5 nM, respectively.
Regarding {Biotin-PEG4′}-GPRCAYHRGELVWCSFH-NH2 (disulfide 4-14 (inferred)), the equilibrium dissociation constant (Kd) was 42 nM with IgG [4] and 56 nM with IgG [5].
As to [PEG4′]GPDCAYHRGELVWCTFH-NH2 (linker 5-15 via 1,3‑dichloro‑2‑propanone), the DBC 10% stood at 4.8 mg/mL in [6]; 4.8 mg/mL in experiment [7]; 4.9 mg/mL in [8]; 4.8 mg/mL in experiment [9]; 4.8 mg/mL in experiment [10]; 4.7 mg/mL in experiment [11]. Moreover, the DBC 10% (% NaOH washing cycle 0) in experiment [6] was found to be 100%; in experiment [7], 100%; in experiment [8] it was 102%; in experiment [9], 100%; in experiment [10], 100%; in [11] it was 97.9%. Besides, the DBC was 2.3 in experiment [12]; 7 in [13]; 12.1 in experiment [14]; 23.1 in experiment [15]; 23.1 in experiment [16]; 31.4 in [17]. In addition, the DBC in experiment [18] amounted to 3.4; in experiment [19], 15.8; in experiment [20] it was 29.5.
For the molecule {Fmoc-PEG4′}-GPDCAYHRGELVWCTFH-NH2 (linker 4-14 via thiocarbonyldiimidazole), the Kd with IgG [21] stood at 1000 nM.
On to {Biotin-PEG4′}-GPDCAYHRGELVWCTFH-NH2 (disulfide 4-14 (inferred)), for which the values for the Kd in the experiment with IgG [4] and in the experiment with IgG [5] were 9.1 nM and 10 nM, respectively.
{Biotin-PEG4′}-GPDCAYHLGELVWCTFH-NH2 (disulfide 4-14 (inferred)): the Kd in the experiment with IgG [4] is 8.1 nM.

The values are drawn from US20190367560A1.
